Data reported in patent US20200308290A1 (AbbVie / Abbott, published 2020).
Where two headings read alike, the source gives them in different places.

T1: CD25 (recombinant) (human, UniProt P01589 22-213, limits assumed)
T1 construct: bought protein; also called IL2-R alpha; IL2-Rα
T1 sequence (looked up): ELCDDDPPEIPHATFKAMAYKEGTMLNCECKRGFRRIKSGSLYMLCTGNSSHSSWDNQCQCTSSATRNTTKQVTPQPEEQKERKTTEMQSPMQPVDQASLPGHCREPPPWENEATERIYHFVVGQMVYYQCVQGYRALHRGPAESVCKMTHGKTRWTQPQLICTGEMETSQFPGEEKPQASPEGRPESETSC


Columns and labels:
[1] = target: T1, CD25 (recombinant); assay: SPR (BIAcore)
[2] = target: T2, cynomolgous monkey CD25 (cynomolgous monkey); assay: SPR (BIAcore), cynomolgous CD25
T2 construct: also called cmCD25; cm

[3] = target: T2, cynomolgous monkey CD25; assay: SPR (BIAcore), cynomolgous CD25; remark: listed apart in the source

Row | Binder | Kd [1] | Kd [2] | Kd [3]
1 | daclizumab variant S77 (antibody, IgG1, name in Kabat numbering, V domains shown, IgG1; Kabat positions; also called I48M; DAC I48M) VH: QVQLVQSGAEVKKPGSSVKVSCKASGYTFTSYRMHWVRQAPGQGLEWMGYINPSTGYTEYNQKFKDKATITADESTNTAYMELSSLRSEDTAVYYCARGGGVFDYWGQGTLVTVSS VL: DIQMTQSPSTLSASVGDRVTITCSASSSISYMHWYQQKPGKAPKLLIYTTSNLASGVPARFSGSGSGTEFTLTISSLQPDDFATYYCHQRSTYPLTFGQGTKVEVK | 0.478 nM | – | –
2 | Variant C47 (antibody, V domains shown) VH: QVQLVQSGAEVKKPGSSVKVSCKASGYTFTSYRMHWVRQAPGQGLEWMGYIRPKKGYTEYNQKFKDKATITADESTNTAYMELSSLRSEDTAVYYCARGGGVFDYWGQGTLVTVSS VL: DIQMTQSPSTLSASVGDRVTITCSASSKISYMHWYQQKPGKAPKLLIYTTSDLASGVPARFSGSGSGTEFTLTISSLQPDDFATYYCHQRSTYPLTFGQGTKVEVK | – | 0.1 nM | 0.1 nM
3 | Variant C60 (antibody, V domains shown) VH: QVQLVQSGAEVKKPGSSVKVSCKASGYTFTSYRMHWVRQAPGQGLEWMGYISPNKGRTEYNQKFKDKATITADESTNTAYMELSSLRSEDTAVYYCARGGGVFDYWGQGTLVTVSS VL: DIQMTQSPSTLSASVGDRVTITCSASSKISYMHWYQQKPGKAPKLLIYTTSDLASGVPARFSGSGSGTEFTLTISSLQPDDFATYYCHQRSTYPLTFGQGTKVEVK | – | < 0.0023 nM | < 0.0023 nM
4 | Variant C52 (antibody, V domains shown) VH: QVQLVQSGAEVKKPGSSVKVSCKASGYTFTSYRMHWVRQAPGQGLEWMGYIKPNSGYTEYNQKFKDKATITADESTNTAYMELSSLRSEDTAVYYCARGGGVFDYWGQGTLVTVSS VL: DIQMTQSPSTLSASVGDRVTITCSASSKISYMHWYQQKPGKAPKLLIYTTSDLASGVPARFSGSGSGTEFTLTISSLQPDDFATYYCHQRSTYPLTFGQGTKVEVK | – | 0.075 nM | 0.075 nM
5 | Variant C57 (antibody, V domains shown) VH: QVQLVQSGAEVKKPGSSVKVSCKASGYTFTSYRMHWVRQAPGQGLEWMGYIKPKSGRTEYNQKFKDKATITADESTNTAYMELSSLRSEDTAVYYCARGGGVFDYWGQGTLVTVSS VL: DIQMTQSPSTLSASVGDRVTITCSASSKISYMHWYQQKPGKAPKLLIYTTSDLASGVPARFSGSGSGTEFTLTISSLQPDDFATYYCHQRSTYPLTFGQGTKVEVK | – | 0.078 nM | 0.078 nM
6 | Variant C63 (antibody, V domains shown) VH: QVQLVQSGAEVKKPGSSVKVSCKASGYTFTSYRMHWVRQAPGQGLEWMGYIKPNSGRTEYNQKFKDKATITADESTNTAYMELSSLRSEDTAVYYCARGGGVFDYWGQGTLVTVSS VL: DIQMTQSPSTLSASVGDRVTITCSASSKISYMHWYQQKPGKAPKLLIYTTSDLASGVPARFSGSGSGTEFTLTISSLQPDDFATYYCHQRSTYPLTFGQGTKVEVK | – | 0.063 nM | 0.063 nM
7 | Variant C54 (antibody, V domains shown) VH: QVQLVQSGAEVKKPGSSVKVSCKASGYTFTSYRMHWVRQAPGQGLEWMGYISPRSGRTEYNQKFKDKATITADESTNTAYMELSSLRSEDTAVYYCARGGGVFDYWGQGTLVTVSS VL: DIQMTQSPSTLSASVGDRVTITCSASSKISYMHWYQQKPGKAPKLLIYTTSDLASGVPARFSGSGSGTEFTLTISSLQPDDFATYYCHQRSTYPLTFGQGTKVEVK | – | 0.055 nM | 0.055 nM
8 | Variant C44 (antibody, V domains shown) VH: QVQLVQSGAEVKKPGSSVKVSCKASGYTFTSYRMHWVRQAPGQGLEWMGYISPKKGYTEYNQKFKDKATITADESTNTAYMELSSLRSEDTAVYYCARGGGVFDYWGQGTLVTVSS VL: DIQMTQSPSTLSASVGDRVTITCSASSKISYMHWYQQKPGKAPKLLIYTTSDLASGVPARFSGSGSGTEFTLTISSLQPDDFATYYCHQRSTYPLTFGQGTKVEVK | – | 0.042 nM | 0.042 nM
9 | Variant C62 (antibody, V domains shown) VH: QVQLVQSGAEVKKPGSSVKVSCKASGYTFTSYRMHWVRQAPGQGLEWMGYIKPNKGRTEYNQKFKDKATITADESTNTAYMELSSLRSEDTAVYYCARGGGVFDYWGQGTLVTVSS VL: DIQMTQSPSTLSASVGDRVTITCSASSKISYMHWYQQKPGKAPKLLIYTTSDLASGVPARFSGSGSGTEFTLTISSLQPDDFATYYCHQRSTYPLTFGQGTKVEVK | – | 0.1 nM | 0.1 nM
10 | Variant C61 (antibody, V domains shown) VH: QVQLVQSGAEVKKPGSSVKVSCKASGYTFTSYRMHWVRQAPGQGLEWMGYISPNSGRTEYNQKFKDKATITADESTNTAYMELSSLRSEDTAVYYCARGGGVFDYWGQGTLVTVSS VL: DIQMTQSPSTLSASVGDRVTITCSASSKISYMHWYQQKPGKAPKLLIYTTSDLASGVPARFSGSGSGTEFTLTISSLQPDDFATYYCHQRSTYPLTFGQGTKVEVK | – | 0.055 nM | 0.055 nM
11 | Variant C45 (antibody, V domains shown) VH: QVQLVQSGAEVKKPGSSVKVSCKASGYTFTSYRMHWVRQAPGQGLEWMGYISPKSGYTEYNQKFKDKATITADESTNTAYMELSSLRSEDTAVYYCARGGGVFDYWGQGTLVTVSS VL: DIQMTQSPSTLSASVGDRVTITCSASSKISYMHWYQQKPGKAPKLLIYTTSDLASGVPARFSGSGSGTEFTLTISSLQPDDFATYYCHQRSTYPLTFGQGTKVEVK | – | 0.055 nM | 0.055 nM
12 | Variant C55 (antibody, V domains shown) VH: QVQLVQSGAEVKKPGSSVKVSCKASGYTFTSYRMHWVRQAPGQGLEWMGYISPKKGRTEYNQKFKDKATITADESTNTAYMELSSLRSEDTAVYYCARGGGVFDYWGQGTLVTVSS VL: DIQMTQSPSTLSASVGDRVTITCSASSKISYMHWYQQKPGKAPKLLIYTTSDLASGVPARFSGSGSGTEFTLTISSLQPDDFATYYCHQRSTYPLTFGQGTKVEVK | – | 0.049 nM | 0.049 nM
13 | Variant C51 (antibody, V domains shown) VH: QVQLVQSGAEVKKPGSSVKVSCKASGYTFTSYRMHWVRQAPGQGLEWMGYIKPNKGYTEYNQKFKDKATITADESTNTAYMELSSLRSEDTAVYYCARGGGVFDYWGQGTLVTVSS VL: DIQMTQSPSTLSASVGDRVTITCSASSKISYMHWYQQKPGKAPKLLIYTTSDLASGVPARFSGSGSGTEFTLTISSLQPDDFATYYCHQRSTYPLTFGQGTKVEVK | – | 0.093 nM | 0.093 nM
14 | Variant C53 (antibody, V domains shown) VH: QVQLVQSGAEVKKPGSSVKVSCKASGYTFTSYRMHWVRQAPGQGLEWMGYISPRKGRTEYNQKFKDKATITADESTNTAYMELSSLRSEDTAVYYCARGGGVFDYWGQGTLVTVSS VL: DIQMTQSPSTLSASVGDRVTITCSASSKISYMHWYQQKPGKAPKLLIYTTSDLASGVPARFSGSGSGTEFTLTISSLQPDDFATYYCHQRSTYPLTFGQGTKVEVK | – | < 0.0024 nM | < 0.0024 nM
15 | Variant C46 (antibody, V domains shown) VH: QVQLVQSGAEVKKPGSSVKVSCKASGYTFTSYRMHWVRQAPGQGLEWMGYIKPKSGYTEYNQKFKDKATITADESTNTAYMELSSLRSEDTAVYYCARGGGVFDYWGQGTLVTVSS VL: DIQMTQSPSTLSASVGDRVTITCSASSKISYMHWYQQKPGKAPKLLIYTTSDLASGVPARFSGSGSGTEFTLTISSLQPDDFATYYCHQRSTYPLTFGQGTKVEVK | – | 0.011 nM | 0.011 nM
16 | Variant C48 (antibody, V domains shown) VH: QVQLVQSGAEVKKPGSSVKVSCKASGYTFTSYRMHWVRQAPGQGLEWMGYIRPKSGYTEYNQKFKDKATITADESTNTAYMELSSLRSEDTAVYYCARGGGVFDYWGQGTLVTVSS VL: DIQMTQSPSTLSASVGDRVTITCSASSKISYMHWYQQKPGKAPKLLIYTTSDLASGVPARFSGSGSGTEFTLTISSLQPDDFATYYCHQRSTYPLTFGQGTKVEVK | – | 0.053 nM | 0.053 nM
17 | Variant C50 (antibody, V domains shown) VH: QVQLVQSGAEVKKPGSSVKVSCKASGYTFTSYRMHWVRQAPGQGLEWMGYISPNSGYTEYNQKFKDKATITADESTNTAYMELSSLRSEDTAVYYCARGGGVFDYWGQGTLVTVSS VL: DIQMTQSPSTLSASVGDRVTITCSASSKISYMHWYQQKPGKAPKLLIYTTSDLASGVPARFSGSGSGTEFTLTISSLQPDDFATYYCHQRSTYPLTFGQGTKVEVK | – | 0.026 nM | 0.026 nM
18 | Variant C59 (antibody, V domains shown) VH: QVQLVQSGAEVKKPGSSVKVSCKASGYTFTSYRMHWVRQAPGQGLEWMGYIRPKSGRTEYNQKFKDKATITADESTNTAYMELSSLRSEDTAVYYCARGGGVFDYWGQGTLVTVSS VL: DIQMTQSPSTLSASVGDRVTITCSASSKISYMHWYQQKPGKAPKLLIYTTSDLASGVPARFSGSGSGTEFTLTISSLQPDDFATYYCHQRSTYPLTFGQGTKVEVK | – | 0.05 nM | 0.05 nM
19 | Variant C49 (antibody, V domains shown) VH: QVQLVQSGAEVKKPGSSVKVSCKASGYTFTSYRMHWVRQAPGQGLEWMGYISPNKGYTEYNQKFKDKATITADESTNTAYMELSSLRSEDTAVYYCARGGGVFDYWGQGTLVTVSS VL: DIQMTQSPSTLSASVGDRVTITCSASSKISYMHWYQQKPGKAPKLLIYTTSDLASGVPARFSGSGSGTEFTLTISSLQPDDFATYYCHQRSTYPLTFGQGTKVEVK | – | 0.0079 nM | 0.0079 nM
